Assay results taken from IntAct's records for PubMed 9278513.

B1: Phytochrome-like protein Cph1 (Synechocystis sp. (strain PCC 6803 / Kazusa)), Q55168 (parent)
chain: MATTVQLSDQSLRQLETLAIHTAHLIQPHGLVVVLQEPDLTISQISANCTGILGRSPEDLLGRTLGEVFDSFQIDPIQSRLTAGQISSLNPSKLWARVMGDDFVIFDGVFHRNSDGLLVCELEPAYTSDNLPFLGFYHMANAALNRLRQQANLRDFYDVIVEEVRRMTGFDRVMLYRFDENNHGDVIAEDKRDDMEPYLGLHYPESDIPQPARRLFIHNPIRVIPDVYGVAVPLTPAVNPSTNRAVDLTESILRSAYHCHLTYLKNMGVGASLTISLIKDGHLWGLIACHHQTPKVIPFELRKACEFFGRVVFSNISAQEDTETFDYRVQLAEHEAVLLDKMTTAADFVEGLTNHPDRLLGLTGSQGAAICFGEKLILVGETPDEKAVQYLLQWLENREVQDVFFTSSLSQIYPDAVNFKSVASGLLAIPIARHNFLLWFRPEVLQTVNWGGDPNHAYEATQEDGKIELHPRQSFDLWKEIVRLQSLPWQSVEIQSALALKKAIVNLILRQAEELAQLARNLERSNADLKKFAYIASHDLQEPLNQVSNYVQLLEMRYSEALDEDAKDFIDFAVTGVSLMQTLIDDILTYAKVDTQYAQLTFTDVQEVVDKALANLKQRIEESGAEIEVGSMPAVMADQIQLMQVFQNLIANGIKFAGDKSPKIKIWGDRQEDAWVFAVQDNGIGIDPQFFERIFVIFQRLHTRDEYKGTGMGLAICKKIIEGHQGQIWLESNPGEGSTFYFSIPIGN
partner: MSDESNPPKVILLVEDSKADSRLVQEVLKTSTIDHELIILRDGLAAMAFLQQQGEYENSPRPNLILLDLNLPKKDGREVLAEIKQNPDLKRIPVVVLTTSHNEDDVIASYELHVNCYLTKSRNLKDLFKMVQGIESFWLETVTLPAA
B2: Response regulator Rcp1 (Synechocystis sp. (strain PCC 6803 / Kazusa)), Q55169 (parent)
chain: B1 partner

Variants of: B1
Conditions: with rcp1_syny3 rcp1, Q55169

effect of a mutation on the interaction | Variant
disrupting interaction | H538K

Variants of: B2
Conditions: with phy1_syny3 cph1, Q55168

effect of a mutation on the interaction | Variant
disrupting interaction | D68A
